The record followed here is patent US20160319265.

This data set deals with TEV substrate.

Turning to AcTEV protease, the TEV Substrate Cleavage (%), 30 minute amounted to 73.9%; the TEV Substrate Cleavage (%), 60 minute is 91.6%; the TEV Substrate Cleavage (%), 120 minute was 97.2%.
